{
  "source": "paper PMC6770517",
  "about": "“Insight into the Antifungal Mechanism of Action of Human RNase N-terminus Derived Peptides” (International Journal of Molecular Sciences, 2019)",
  "key": {"C. albicans cells [1]": {"tested_on": "C. albicans cells", "assay": "Cell binding assay (supernatant SDS-PAGE)", "set-up": "species or system Candida albicans (ATCC 90028)", "conditions": "1 μM, PBS, 30 °C, 15, 30 and 60 min; unbound fraction by SDS-PAGE", "description": "(§1) C. albicans was cultured overnight in Sabouraud Dextrose broth at 30 °C, sub-cultured the next day and grown to an optical density of 0.4 at 592 nm (mid log-phase). Cells were washed twice in PBS and adjusted to 2 × 10^6 cells/mL. Cells and yeast β-D-Glucan (0.4 mg/mL) (Sigma) were respectively incubated in 100 μL of PBS at 30 °C with proteins and peptides at 1 μM final concentration during different periods of time up to 1 h. Following, the samples were centrifuged at 12,000× g. The supernatant samples were concentrated, and the presence of the proteins and peptides was checked by 15–18% SDS-PAGE and Coomassie Blue staining. Reference protein controls were treated following the same protocol in the absence of cells."}, "[2]": {"assay": "β-D-Glucan binding assay (supernatant SDS-PAGE)", "set-up": "species or system yeast", "conditions": "β-D-Glucan 0.4 mg/mL, 1 μM, PBS, 30 °C, up to 1 h; unbound fraction by SDS-PAGE", "description": "as §1"}, "C. albicans cells [3]": {"tested_on": "C. albicans cells", "assay": "Minimal agglutination activity (MAC)", "format": "cell-based, Candida albicans (ATCC 90028)", "conditions": "protein tested up to 20 μM", "description": "C. albicans cells were grown at 30 °C to an OD592 of 1.0, diluted 10 times, centrifuged at 5000× g for 2 min, and resuspended in 1× PBS. An aliquot of 100 μL of the cellular suspension was treated with increasing peptide concentrations (from 0.01 to 20 μM) and incubated at 30 °C for 1 h. The aggregation behavior was observed by visual inspection, and the agglutinating activity is expressed as the minimum agglutinating concentration of the sample tested, as previously described. Images were taken using a 50× stereoscope microscope."}},
  "data": [
    {"molecule": "hRNase3: human ribonuclease 3 of the RNaseA superfamily, parental protein of RN3 (protein, UniProt P12724 28-160, looked up) Eosinophil cationic protein: RPPQFTRAQWFAIQHISLNPPRCTIAMRAINNYRWRCKNQNTFLRTTFANVVNVCGNQSIRCPHNRTLNNCHRSRFRVPLLHCDLINPGAQNISNCTYADRPGRRFYVVACDNRDPRDSPRYPVVPVHLDTTI", "values": [
      {"measurement": "binding to C. albicans cell wall", "setting": "C. albicans cells [1]", "value": "able to bind to the C. albicans cell wall"},
      {"measurement": "binding to main cell wall component (β-D-Glucan)", "setting": "[2]", "value": "positive binding"},
      {"measurement": "agglutination of C. albicans by the parental hRNase", "setting": "C. albicans cells [3]", "value": "able to agglutinate C. albicans"}
    ]}
  ]
}
